Where a chain is given by its changes, count along the chain named.
B1: D116 (antibody, V domains shown)
VH: EVQLVESGGGLVLPGGSLRLSCVASGFTFSSYWMTWVRQAPGKGLEWVANIQRDGREKYYVDSLKGRFSISRDNDKNSLYLQMNNLRAEDTGVYYCARAQTCTTCSSPNWFDPWGQGTLVTVSS
VL: QSVLTQPASVSGSPGQSITISCTGTSSDVGSYNLVSWYQQHPGKAPKLIIYEGSKRPSGVSNRFSGSKSGNTASLTISGLQAEDEADYYCCSYAGSNTLVFGGGTKVTVL
B2: D151 (antibody, V domains shown)
VH: QVQLQQWGAGLLKPSETLSLTCAVYGGSFSGYYWSWIRQPPGKGLEWIGEINHDGDTNYNPSLKSRVTLSVDTSKNQFSLSLSSVTAADTAVYYCARRKQQQSYYYYSIDVWGQGTTVTVSS
VL: DIQMTQSPSSLSASVGDRVTITCRATQGIRNDLGWYQQKPGKAPKRLIYAASSLQSGVPSRFSGSGSGTEFTLTISSLQPEDFATYYCLQHSSYPLTFGGGTKVEIK
B3: D011 (antibody, V domains shown)
VH: EVQLVESGGGLVQPGRSLRLSCAASGFTFDDYAMHWVRQAPGKGLEWVSGISWNSGSIGYADSVKGRFTISRDNAKNSLYLQMNSLRAEDTALYYCAKGDSSGYYFAYEDYGMDVWGQGTTVTVSS
VL: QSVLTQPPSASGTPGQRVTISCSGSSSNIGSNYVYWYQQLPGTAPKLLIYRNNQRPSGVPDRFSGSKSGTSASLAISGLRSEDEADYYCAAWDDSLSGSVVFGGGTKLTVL
B4: D139 (antibody, V domains shown)
VH: QVQLVESGGGVVQPGRSLRLSCAASGFTFSSYGMHWVRQAPGKGLEWVAVISYDGSNKYYADSVKGRFTISRDNSKNTLYLQMNSLRAEDTAVYYCAKMGGGVYCSGGSCYSSYFDYWGQGTLVTVSS
VL: AIQLTQSPSSLSASVGDRVTITCRASQGISSALAWYQQKPGKAPKLLIYDASSLESGVPSRFSGSGSGTDFTLTISSLQPEDFATYYCQQFNNYLPLTFGGGTKVEIK
B5: D180 (antibody, V domains shown)
VH: EVQLVESGGGLVQPGGTLRLSCEASGFAFSTFWMTWVRQAPGKGLEWVANIKQDGSEKYYVDSVKGRFTISRDNAKNSLYLQMNSLRAEDTAVYYCASRSIVVAGTDYWGQGTLVTVSS
VL: not shown
B6: D170 (antibody, V domains shown)
VH: QVQLVQSGAEVKKPGSSVKVSCKASGGTFSSYAISWVRQAPGQGLEWMGGIIPIFGTANYAQKFQGRVTITADESTSTAYMELSSLRSEDTAVYYCAREGGYCSGGSCSHYFDAFDIWGQGTMVTVSS
VL: QSALTQPASVSGSPGQSITISCTGTSSDVGSYNLVSWYQQHPGKAPKLMIYEGSKRPSGVSNRFSGSKSGNTASLTISGLQAEDEADYYCCSYAGSSTFWVFGGGTKLTVL
B7: D176 (antibody, V domains shown)
VH: QVQLVQSGAEVKKPGASVKVSCKASGYTFTSYDINWVRQATGQGLEWMGWMNPNSGNTGYAQKFQGRVTITRNTSISTAYMELSSLRSEDTAVYYCARGGSLMDVWGKGTTVTVSS
VL: B6 VL with S2F, A3V, S31G, L34Y, E52D, G53V, C91S, A94T, G95S, W100E
B8: D110 (antibody, V domains shown)
VH: EVQLLESGGGLVQPGGSLRLSCTASGFTFSNYAMNWVRQAPGQGLEWVSAISGSGYSTYYVDSAKGRFTISRDNSKNTLYLQMNSLRADDTAVFYCTKSTYYDNSGYYSVFDYWGQGTLVTVSS
VL: NFMLTQPHSVSESPGETVTISCTRSSGNIASKFVQWFQQRPGSSPTTVIYENNQRPSGVPDRFSGSIDSSSNSASLTISGLKTEDEADYYCQSSDSTNVVFGGGTKLTVL
B9: D134 (antibody, V domains shown)
VH: EVQLVESGGGVVQPGGSLRLSCAASGFTFDDYAMHWVRQAPGKGLEWVSLISGDGGSTYYADSVKGRFTISRDNSKNSLYLQMNSLRTEDTALYYCANGERGGNPRGGYYYYGMDVWGQGTTVTVSS
VL: EIVLTQSPATLSLSPGERATLSCRASQSVSSYLAWYQQKPGQAPRLLIYDASNRATGIPARFSGSGSGTDFTLTISSLEPEDFAVYYCQQRSNWPPYTFGQGTKLEIK
B10: D087 (antibody, V domains shown)
VH: QVQLVQSGAEVKKPGASVKVSCKASGYTFTNYDFNWVRQAPGQGLEWMGWMNPNSGNTGYAQKFQGRVTITRNTSINTAYMELSSLRSEDTAVYYCARAPDCSSFSCSYYFDYWGQGTLVTVSS
VL: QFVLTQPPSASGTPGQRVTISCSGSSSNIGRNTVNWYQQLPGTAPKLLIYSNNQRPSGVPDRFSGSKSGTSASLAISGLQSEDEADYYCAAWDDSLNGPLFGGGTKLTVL
B11: D090 (antibody, V domains shown)
VH: EVQLVESGGGLVQPGRSLRLSCAASGFTFDDYAMHWVRQAPGKGLEWVSGISWNSGSIGYADSVKGRFTISRDNAKNSLYLQMNSLRAEDMALYYCAKGLPYSSSWYDAFDIWGQGTMVTVSS
VL: not shown
B12: C2725 (antibody, V domains shown)
VH: EVQLVESGGGLVQPGRSLRLSCAASGFTFDDYAMHWVRQAPGKGLEWVSGISWNSGSIGYADSVKGRFTISRDNAKNSLYLQMNSLRAEDTALYYCAKLSRGHYYDFKADSGDFDYWGQGTLVTVSS
VL: QSALTQPASVSGSPGQSITISCTGTSSDVGSYNLVSWYQQHPGKAPKLMIYEGSKRPSGVSNRFSGSKSGNTASLTISGLQAEDEADYYCCSYAGSSWVFGGGTKLTVL
B13: D187 (antibody, V domains shown)
VH: QVQLVQSGAEVKKPGSSVKVSCKASGGTFSSYAISWVRQAPGQGLEWMGGIIPIFGTANYAQKFQGRVTITADESTSTAYMELSSLRSEDTAVYYCATRGWSGYQTMQKNAFDIWGQGTMVTVSS
VL: not shown
B14: D153 (antibody, V domains shown)
VH: QVQLVQSGAEVKKPGASVKVSCKASGYTFTSYGISWVRQAPGQGLEWMGWISAYNGNTNYAQKLQGRVTMTTDTSTSTAYMELRSLRSDDTAVYYCARDFNDFWSGYWGYWGQGTLVTVSS
VL: QSALTQPPSASGSPGQSVTISCTGTSSDVGGYNYVSWYQQHPGKAPKLMIYEVSKRPSGVPDRFSGSKSGNTASLTVSGLQAEDEADYYCSSYAGSNNLVFGGGTKLTVL
B15: D130 (antibody, V domains shown)
VH: EVQLVESGGGLVQPGRSLRLSCAASGFTFDDYAMHWVRQAPGKGLEWVSGISWNSGSIGYADSVKGRFTISRDNAKNSLYLQMNSLRAEDTALYYCAKSGLYGDYDAAFDYWGQGTLVTVSS
VL: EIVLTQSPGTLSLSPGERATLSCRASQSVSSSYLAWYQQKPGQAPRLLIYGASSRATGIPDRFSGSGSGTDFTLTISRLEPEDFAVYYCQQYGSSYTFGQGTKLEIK
B16: D026 (antibody, V domains shown)
VH: EVQLVESGGGLVQPGRSLRLSCAASGFTFDDYAMHWVRQAPGKGLEWVSGISWNSGSIGYADSVKGRFTISRDNAKNSLYLQMNSLRAEDTALYYCAKDIHYDSSGLDYWGQGTLVTVSS
VL: not shown
B17: D179 (antibody, V domains shown)
VH: EVQLVESGGGLVQPGRSLRLSCAASGFTFDDYAMHWVRQAPGKGLEWVSGISWNSGSIGYADSVKGRFTISRDNAKNSLYLQMNSLRAEDTALYYCAKGQIVGATSSDYGMDVWGQGTTVTVSS
VL: DIQMTQSPSSVSASVGDRVTITCRASQGISSWLAWYQQKPGKAPKLLIYAASSLQSGVPSRFSGSGSGTDFTLTISSLQPEDFATYYCQQANSFPYTFGQGTKLEIK
B18: D185 (antibody, V domains shown)
VH: QVQLVQSGAEVKKPGSSVKVSCKASGGTFSSYAISWVRQAPGQGLEWMGGIIPIFGTANYAQKFQGRVTITADKSTSTAYMELSSLRSEDTAVYYCARAQQQLVQHGGYGMDVWGQGTTVTVSS
VL: QSVLTQPPSVSGAPGQRVTISCTGSSSNIGAGYDVHWYQQLPGTAPKLLIYGNSNRPSGVPDRFSGSKSGTSASLAITGLQAEDEADYYCQSYDSSLSAVVFGGGTKLTVL
B19: D156 (antibody, V domains shown)
VH: EVQLLESGGGLAQPGGSLRLSCAASGFTFSSYAMSWVRQAPGKGLEWVSAISGSGGTYYADFVKGRFTISRDDSKNTLYLQINSLRAEDTAIYYCAKDGYGSGNYKLRYLELWGRGTLVTVSS
VL: QSVLTQPASVSGSPGQSITISCTGTSSDVGGYNYVSWYQQHPGKAPKFMIYDVSKRPSGVSNRFSGSKSGNTASLTISGLQAEDEADYYCFSYAGSLVFGGGTKLTVL
B20: D135 (antibody, V domains shown)
VH: EVQLVESGGGLIQPGGSLRLSCAASGFTVSSNYMTWVRQAPGKGLEWVSLIYSGGSTYYTDSVKGRFTISRDNSKNTLYLQMNSLRAEDTAVYYCARLLITMVRGVISSGLDYWGQGTLVTVSS
VL: EIVLTQSPGTLSLSPGERATLSCRASQSVSSSYLAWYQQRPGQPPRLLIYGASSRATGIPDRFSDSGSGTDFTLTISRLEPEDFAVYYCQQYGSSPPITFGQGTRLDIK
B21: D175 (antibody, V domains shown)
VH: QLQLQESGPGLVKPSETLSLTCTVSGGSISSSSYYWGWIRQPPGKGLEWIGSIYYSGSTYYNPSLKSRVTISVDTSKNQFSLKLSSVTAADTAVYYCARGATYYYDSSGYYTPAPFDYWGQGTLVTVSS
VL: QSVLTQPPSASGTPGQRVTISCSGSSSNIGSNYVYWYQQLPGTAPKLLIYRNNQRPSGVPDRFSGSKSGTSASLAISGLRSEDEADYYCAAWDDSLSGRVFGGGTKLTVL
B22: C2713 (antibody, V domains shown)
VH: QVQLVQSGAEVKKPGASVKVSCKASGYTFTSYYMHWVRQAPGQGLEWMGIINPSGGSTSYAQKFQGRVTMTRDTSTSTVYMELRSLRSEDTAVYYCARDRSSNYGMDVWGQGTTVTVSS
VL: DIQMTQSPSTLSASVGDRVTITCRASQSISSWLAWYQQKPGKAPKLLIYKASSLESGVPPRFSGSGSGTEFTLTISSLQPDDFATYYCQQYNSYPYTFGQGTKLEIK
B23: C2692 (antibody, V domains shown)
VH: EVQLVESGGGLVQPGRSLRLSCAASGFTFDDYAMHWVRQAPGKGLEWVSGISWNSGSIGYADSVKGRFTISRDNAKNSLYLQMNSLRAEDTALYYCAKDIDTMVQGGEFYFDYWGQGTLVTVSS
VL: QSALTQPASVSGSPGQSITISCTGTSSDVGGYNYVSWYQQHPGKAPKLMIYDVSNRPSGVSNRFSGSKSGNTASLTISGLQAEDEADYYCSSYTSSSTVVFGGGTKLTVL
B24: D133 (antibody, V domains shown)
VH: EVQLVESGGGLVQPGGSLRLSCAASGFTFSSYDMHWVRQATGKGLEWVSAIGTAGDTYYPGSVKGRFTISRENAKNSLYLQMNSLRAGDTAVYYCARGTTVSQQYPSGIPYYYGMDVWGQGTTVTVSS
VL: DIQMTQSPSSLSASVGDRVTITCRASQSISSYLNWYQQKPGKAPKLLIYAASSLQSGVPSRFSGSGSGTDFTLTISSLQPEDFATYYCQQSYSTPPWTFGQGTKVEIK
B25: D181 (antibody, V domains shown)
VH: QVQLQESGPGLVKPSQTLSLTCTVSGGSISSGGYYWSWIRQHPGKGLEWIGYIYYSGSTYYNPSLKSRVTISVDTSKNQFSLKLSSVTAADTAVYYCARDRMEIYYDSSGYHPGPFDYWGQGTLVTVSS
VL: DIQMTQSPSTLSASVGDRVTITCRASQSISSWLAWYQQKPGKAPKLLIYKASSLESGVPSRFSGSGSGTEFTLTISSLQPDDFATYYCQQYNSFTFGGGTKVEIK
B26: D119 (antibody, V domains shown)
VH: QLQLQESGPGLVKPSETLSLTCTVSGGSISSSSYYWGWIRQPPGKGLEWIGSIYYSGSTYYNPSLKSRVTISVDTSKNQFSLKLSSVTAADTAVYYCARLYSSGWYAFISWGQGTLVTVSS
VL: not shown

Target: SARS-CoV-2 spike RBD (WT) (Severe acute respiratory syndrome …, UniProt P0DTC2)
Assay: ELISA
Design: unit not given here

B1 and B2 cannot be ordered by binding score: > 10000 for the first, > 10000 for the second.

First: B3
Second: B4
The binding score of the first is higher: > 10000 for the first, 311 for the second.

Compared with B5, B6 is lower in binding score: 8900 for the first, 3050 for the second.

Compared with B7, B8 is higher in binding score: 1430 for the first, 2330 for the second.

B9 and B10 cannot be ordered by binding score: > 10000 for the first, > 10000 for the second.

First: B11
Second: B12
The binding score of the first is higher: > 10000 for the first, 230 for the second.

B13 and B14 cannot be ordered by binding score: > 10000 for the first, > 10000 for the second.

B15 and B16 cannot be ordered by binding score: > 10000 for the first, > 10000 for the second.

First: B17
Second: B18
The binding score of the first is lower: 8900 for the first, > 10000 for the second.

Going from B19 to B20, the binding score falls from > 10000 to 1110.

Going from B21 to B22, the binding score falls from > 10000 to 4560.

Compared with B23, B24 is higher in binding score: 1200 for the first, > 10000 for the second.

B25 and B26 cannot be ordered by binding score: > 10000 for the first, > 10000 for the second.

— PMC9876794 (2022)
